{"source": "paper PMC9896449", "key": {"[1]": {"target": "BiShAb0201 (ShAb02 VNAR - (GGGGS)5 - ShAb01 VNAR - human IgG1 Fc) (nurse shark (Ginglymostoma cirratum))", "experiment": "BLI"}, "[2]": {"target": "ShAb01H02K (knob-in-hole heterodimer of ShAb01-Fc and ShAb02-Fc) (nurse shark (Ginglymostoma cirratum))", "experiment": "BLI"}}, "note": "pKd: −log10 of the molar value."}
{"substance": "SARS-CoV-2 WA-1 spike receptor binding domain (RBD) (from UniProt P0DTC2 331-527) (domain or fragment)", "values": [{"measurement": "pKd", "setting": "[1]", "result": 8.97}, {"measurement": "koff", "setting": "[1]", "result": "2.82e-05", "unit": "s⁻¹"}, {"measurement": "kon", "setting": "[1]", "result": 26300, "unit": "M⁻¹ s⁻¹"}, {"measurement": "pKd", "setting": "[2]", "result": 9.24}, {"measurement": "koff", "setting": "[2]", "result": "6.98e-05", "unit": "s⁻¹"}, {"measurement": "kon", "setting": "[2]", "result": 122000, "unit": "M⁻¹ s⁻¹"}]}
